The record followed here is paper PMC12582974, “Characterization of WAC interactions with R2TP and TTT chaperone complexes linking glucose and glutamine availability to mTORC1 activity” (FEBS Open Bio, 2025).

Assay [1] addresses mTOR-mLST8 complex (10xHis-TEV-mTOR with untagged mLST8) (human, UniProt P42345 1-2549; Q9BVC4 1-326). The assay is described as follows: pull-down; WAC-3xFlag from Expi293 lysate purified and held on anti-Flag resin (washes incl. 5 mM ATP/5 mM MgCl2); purified prey added 20 min at 4 °C in 150 mM Tris pH 8, 300 mM KCl, 10% glycerol, 0.5 mM TCEP; elution with 3xFlag peptide; SDS/PAGE and western blot. The conditions noted are these: both partners purified. (In western blotting, separated proteins are transferred to a membrane and probed.)

The target of the next assay is T1, RUVBL1-RUVBL2 complex (human, UniProt Q9Y265 1-456; Q9Y230 1-463).
T1 construct: RUVBL1 (RuvB-like 1), human, N-terminal His-tag and TEV site; RUVBL2 (RuvB-like 2), human, untagged; also called RUVBL1‐RUVBL2 module; RUVBL1‐RUVBL2 ATPase module; source: E. coli BL21 (DE3), co-expressed, purified (HisTrap HP; an untagged form by TEV digestion and a second HisTrap step)
The description is as above. The note with it: both partners purified.

T1 sequence (Q9Y265 whole entry, chain 1 of 2): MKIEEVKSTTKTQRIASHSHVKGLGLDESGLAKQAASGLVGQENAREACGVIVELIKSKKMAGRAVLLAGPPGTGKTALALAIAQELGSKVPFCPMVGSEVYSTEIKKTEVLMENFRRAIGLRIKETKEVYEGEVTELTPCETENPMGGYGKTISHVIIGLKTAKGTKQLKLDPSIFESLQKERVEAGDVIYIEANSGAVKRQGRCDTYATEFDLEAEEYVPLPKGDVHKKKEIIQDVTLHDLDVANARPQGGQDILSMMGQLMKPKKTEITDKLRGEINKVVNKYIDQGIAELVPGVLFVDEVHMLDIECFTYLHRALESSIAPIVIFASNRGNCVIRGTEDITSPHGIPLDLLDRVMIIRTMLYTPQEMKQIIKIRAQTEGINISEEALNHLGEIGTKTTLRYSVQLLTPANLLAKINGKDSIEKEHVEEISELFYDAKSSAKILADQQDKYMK
T1 sequence (Q9Y230 whole entry, chain 2 of 2): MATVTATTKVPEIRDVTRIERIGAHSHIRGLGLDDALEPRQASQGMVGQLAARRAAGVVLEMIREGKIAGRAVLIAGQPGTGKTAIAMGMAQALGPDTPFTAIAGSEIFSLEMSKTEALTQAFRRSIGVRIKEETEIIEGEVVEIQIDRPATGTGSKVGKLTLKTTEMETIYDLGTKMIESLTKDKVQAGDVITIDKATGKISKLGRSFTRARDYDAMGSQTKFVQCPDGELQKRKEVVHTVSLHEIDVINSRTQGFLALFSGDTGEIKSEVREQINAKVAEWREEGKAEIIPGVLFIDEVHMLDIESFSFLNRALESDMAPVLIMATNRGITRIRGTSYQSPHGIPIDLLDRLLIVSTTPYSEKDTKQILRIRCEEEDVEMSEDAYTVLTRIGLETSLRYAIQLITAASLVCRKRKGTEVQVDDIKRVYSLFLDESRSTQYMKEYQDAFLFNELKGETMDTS

B1: WAC-3xFlag (human WAC with C-terminal 3xFlag tag, pACEMam-WAC-3C-3xFlag) (natural protein, UniProt Q9BTA9-1 1-647, looked up)
chain: MVMYARKQQRLSDGCHDRRGDSQPYQALKYSSKSHPSSGDHRHEKMRDAGDPSPPNKMLRRSDSPENKYSDSTGHSKAKNVHTHRVRERDGGTSYSPQENSHNHSALHSSNSHSSNPSNNPSKTSDAPYDSADDWSEHISSSGKKYYYNCRTEVSQWEKPKEWLEREQRQKEANKMAVNSFPKDRDYRREVMQATATSGFASGMEDKHSSDASSLLPQNILSQTSRHNDRDYRLPRAETHSSSTPVQHPIKPVVHPTATPSTVPSSPFTLQSDHQPKKSFDANGASTLSKLPTPTSSVPAQKTERKESTSGDKPVSHSCTTPSTSSASGLNPTSAPPTSASAVPVSPVPQSPIPPLLQDPNLLRQLLPALQATLQLNNSNVDISKINEVLTAAVTQASLQSIIHKFLTAGPSAFNITSLISQAAQLSTQAQPSNQSPMSLTSDASSPRSYVSPRISTPQTNTVPIKPLISTPPVSSQPKVSTPVVKQGPVSQSATQQPVTADKQQGHEPVSPRSLQRSSSQRSPSPGPNHTSNSSNASNATVVPQNSSARSTCSLTPALAAHFSENLIKHVQGWPADHAEKQASRLREEAHNMGTIHMSEICTELKNLRSLVRVCEIQATLREQRILFLRQQIKELEKLKNQNSFMV
notes: WAC (WW domain-containing adaptor with coiled-coil), human, cDNA NM_016628.5 from GenScript (clone OHu28471); An HRV 3C protease site stands between WAC and the 3xFlag tag; also called WW domain-containing adaptor with coiled-coil; WAC lysate; source: Expi293 cells, overexpressed; purified on anti-Flag resin and kept on the beads; not shown: 3xFlag, C-terminal, kept
As for B1, the binding result (in assay [1]; with RUVBL1-RUVBL2 complex) was “binds” each time.
